Key:
Experiment in all cases: co-immunoprecipitation with anti-αPDGFR antibody from F cells, Western blot
[1] = molecular target: T1, tyrosine phosphatase SHP-2 (UniProt P35235 2-593, limits assumed)
T1 construct: Endogenous protein that co-precipitates with the receptor from F cell lysates
T1 sequence (looked up): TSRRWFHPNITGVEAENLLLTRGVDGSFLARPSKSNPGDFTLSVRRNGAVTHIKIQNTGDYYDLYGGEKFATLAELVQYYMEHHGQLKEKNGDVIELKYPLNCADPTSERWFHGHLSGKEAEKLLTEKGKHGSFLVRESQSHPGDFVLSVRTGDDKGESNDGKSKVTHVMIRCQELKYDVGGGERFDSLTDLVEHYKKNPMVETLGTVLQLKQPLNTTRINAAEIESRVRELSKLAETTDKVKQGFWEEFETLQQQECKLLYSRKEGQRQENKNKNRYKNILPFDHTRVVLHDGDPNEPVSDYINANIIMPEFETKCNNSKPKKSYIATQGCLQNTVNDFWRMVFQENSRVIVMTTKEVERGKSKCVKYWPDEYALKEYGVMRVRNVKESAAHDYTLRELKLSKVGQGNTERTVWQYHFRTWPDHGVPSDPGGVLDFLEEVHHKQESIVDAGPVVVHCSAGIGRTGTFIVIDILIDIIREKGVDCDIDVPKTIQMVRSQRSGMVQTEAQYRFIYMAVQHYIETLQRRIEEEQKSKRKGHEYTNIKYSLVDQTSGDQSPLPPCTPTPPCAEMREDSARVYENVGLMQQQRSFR
Description: (§1) Portions of the membrane that contained the proteins of the appropriate molecular mass were immunoblotted for PLCγ, the regulatory subunit of PI3K (p85), or SHP-2. Crude rabbit anti-p85 antibody is from Dr. A. Toker (Beth Israel Hospital/Harvard Medical School, Boston, Mass.). The monoclonal antibodies against PLCγ and SHP-2 were purchased from Upstate Biotechnology Inc.

[2] = molecular target: T2, regulatory subunit of PI3K (p85) (UniProt P26450 2-724)
T2 construct: The catalytic subunit is not described; also called phosphoinositide 3-kinase
Description: as §1

[3] = molecular target: T3, phospholipase C-γ1 (PLCγ) (UniProt Q62077 2-1302, limits assumed)
T3 construct: Endogenous protein that co-precipitates with the receptor from F cell lysates; also called phospholipase C-gamma
T3 sequence (looked up): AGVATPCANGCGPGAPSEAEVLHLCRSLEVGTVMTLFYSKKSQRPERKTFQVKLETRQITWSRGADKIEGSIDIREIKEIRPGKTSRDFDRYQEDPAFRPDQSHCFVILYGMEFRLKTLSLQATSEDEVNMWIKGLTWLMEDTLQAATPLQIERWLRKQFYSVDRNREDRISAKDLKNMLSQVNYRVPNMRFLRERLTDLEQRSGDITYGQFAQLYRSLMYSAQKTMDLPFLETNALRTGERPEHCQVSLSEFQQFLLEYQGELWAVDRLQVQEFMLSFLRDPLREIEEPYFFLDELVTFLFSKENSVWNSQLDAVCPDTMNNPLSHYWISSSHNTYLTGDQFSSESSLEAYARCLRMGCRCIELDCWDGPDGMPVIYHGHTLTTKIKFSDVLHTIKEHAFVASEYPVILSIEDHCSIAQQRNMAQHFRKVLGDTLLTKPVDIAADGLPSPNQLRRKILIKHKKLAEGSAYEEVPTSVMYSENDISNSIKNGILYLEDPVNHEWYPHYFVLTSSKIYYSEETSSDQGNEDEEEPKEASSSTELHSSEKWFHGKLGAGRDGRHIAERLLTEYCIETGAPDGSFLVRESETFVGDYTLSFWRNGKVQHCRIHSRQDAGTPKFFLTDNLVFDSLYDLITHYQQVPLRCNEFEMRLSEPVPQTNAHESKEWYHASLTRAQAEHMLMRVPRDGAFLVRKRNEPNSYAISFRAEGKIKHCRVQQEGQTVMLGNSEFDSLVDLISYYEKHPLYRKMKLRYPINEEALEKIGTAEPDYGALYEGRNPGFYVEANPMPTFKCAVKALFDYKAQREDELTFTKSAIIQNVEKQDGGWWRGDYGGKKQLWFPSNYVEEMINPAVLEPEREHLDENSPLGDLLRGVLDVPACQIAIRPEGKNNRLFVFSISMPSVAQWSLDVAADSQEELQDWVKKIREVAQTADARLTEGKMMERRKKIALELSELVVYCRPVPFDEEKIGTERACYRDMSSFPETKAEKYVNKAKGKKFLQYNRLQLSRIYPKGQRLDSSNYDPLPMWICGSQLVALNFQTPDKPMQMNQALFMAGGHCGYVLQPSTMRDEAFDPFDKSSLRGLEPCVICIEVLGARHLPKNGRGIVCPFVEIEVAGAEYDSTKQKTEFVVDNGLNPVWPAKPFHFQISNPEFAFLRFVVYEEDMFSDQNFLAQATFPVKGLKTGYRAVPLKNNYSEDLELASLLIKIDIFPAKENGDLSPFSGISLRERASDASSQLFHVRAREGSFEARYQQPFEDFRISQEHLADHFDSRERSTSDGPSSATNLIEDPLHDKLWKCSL
Description: as §1

T2 sequence (P26450 2-724): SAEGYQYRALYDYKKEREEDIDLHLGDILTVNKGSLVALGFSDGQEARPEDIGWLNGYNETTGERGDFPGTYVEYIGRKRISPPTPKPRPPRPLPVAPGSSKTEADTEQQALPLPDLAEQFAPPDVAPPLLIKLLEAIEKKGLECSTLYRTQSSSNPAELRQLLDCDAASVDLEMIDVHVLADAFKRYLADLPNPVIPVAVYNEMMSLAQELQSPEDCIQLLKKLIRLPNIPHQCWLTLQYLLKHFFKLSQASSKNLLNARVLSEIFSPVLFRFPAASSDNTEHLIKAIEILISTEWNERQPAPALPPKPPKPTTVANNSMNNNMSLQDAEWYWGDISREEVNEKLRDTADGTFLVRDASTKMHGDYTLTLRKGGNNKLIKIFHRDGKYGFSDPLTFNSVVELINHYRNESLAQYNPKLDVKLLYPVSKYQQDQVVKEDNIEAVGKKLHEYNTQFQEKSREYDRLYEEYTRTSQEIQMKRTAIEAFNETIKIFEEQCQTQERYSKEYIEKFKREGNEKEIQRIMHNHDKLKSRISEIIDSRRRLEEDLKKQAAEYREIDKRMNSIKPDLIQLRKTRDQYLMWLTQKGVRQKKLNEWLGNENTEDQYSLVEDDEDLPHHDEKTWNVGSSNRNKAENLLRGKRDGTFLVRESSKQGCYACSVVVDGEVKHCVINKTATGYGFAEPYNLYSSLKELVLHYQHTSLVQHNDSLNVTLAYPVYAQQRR

binding result [1]: no binding
binding result [2]: no binding
binding result [3]: no binding
B1: αPDGFR mutant F7 (Tyr to Phe substitution at 572, 574, 720, 731, 742, 988, and 1018) (receptor)
chain: QLSLPSILPNENEKVVQLNSSFSLRCFGESEVSWQYPMSEEESSDVEIRNEENNSGLFVTVLEVSSASAAHTGLYTCYYNHTQTEENELEGRHIYIYVPDPDVAFVPLGMTDYLVIVEDDDSAIIPCRTTDPETPVTLHNSEGVVPASYDSRQGFNGTFTVGPYICEATVKGKKFQTIPFNVYALKATSELDLEMEALKTVYKSGETIVVTCAVFNNEVVDLQWTYPGEVKGKGITMLEEIKVPSIKLVYTLTVPEATVKDSGDYECAARQATREVKEMKKVTISVHEKGFIEIKPTFSQLEAVNLHEVKHFVVEVRAYPPPRISWLKNNLTLIENLTEITTDVEKIQEIRYRSKLKLIRAKEEDSGHYTIVAQNEDAVKSYTFELLTQVPSSILDLVDDHHGSTGGQTVRCTAEGTPLPDIEWMICKDIKKCNNETSWTILANNVSNIITEIHSRDRSTVEGRVTFAKVEETIAVRCLAKNLLGAENRELKLVAPTLRSELTVAAAVLVLLVIVIISLIVLVVIWKQKPRYEIRWRVIESISPDGHEFIFVDPMQLPYDSRWEFPRDGLVLGRVLGSGAFGKVVEGTAYGLSRSQPVMKVAVKMLKPTARSSEKQALMSELKIMTHLGPHLNIVNLLGACTKSGPIYIITEYCFYGDLVNYLHKNRDSFLSHHPEKPKKELDIFGLNPADESTRSFVILSFENNGDFMDMKQADTTQFVPMLERKEVSKYSDIQRSLYDRPASYKKKSMLDSEVKNLLSDDNSEGLTLLDLLSFTYQVARGMEFLASKNCVHRDLAARNVLLAQGKIVKICDFGLARDIMHDSNYVSKGSTFLPVKWMAPESIFDNLYTTLSDVWSYGILLWEIFSLGGTPYPGMMVDSTFYNKIKSGYRMAKPDHATSEVYEIMVKCWNSEPEKRPSFYHLSEIVENLLPGQYKKSYEKIHLDFLKSDHPAVARMRVDSDNAFIGVTYKNEEDKLKDWEGGLDEQRLSADSGFIIPLPDIDPVPEEEDLGKRNRHSSQTSEESAIETGSSSSTFIKREDETIEDIDMMDDIGIDSSDLVEDSFL
notes: Expressed in F cells and immunoprecipitated from lysates
